This is an account of results in paper doi:10.1101/2021.08.20.457142.

B1: MKK7 D-site peptide (second D-site) / JNK1 alpha1 (MAPK8 isoform 1) L198A, full length (parent complex)
chain 1: SQPQRPRPTLQLPLANEAFEQP
chain 2: MSRSKRDNNFYSVEIGDSTFTVLKRYQNLKPIGSGAQGIVCAAYDAILERNVAIKKLSRPFQNQTHAKRAYRELVLMKCVNHKNIIGLLNVFTPQKSLEEFQDVYIVMELMDANLCQVIQMELDHERMSYLLYQMLCGIKHLHSAGIIHRDLKPSNIVVKSDCTLKILDFGLARTAGTSFMMTPYVVTRYYRAPEVIAGMGYKENVDLWSVGCIMGEMVCHKILFPGRDYIDQWNKVIEQLGTPCPEFMKKLQPTVRTYVENRPKYAGYSFEKLFPDVLFPADSEHNKLKASQARDLLSKMLVIDASKRISVDEALQHPYINVWYDPSEAEAPPPKIPDKQLDEREHTIEEWKELIYKEVMDLEERTKNGVIRGQPSPLAQVQQ

In this experiment the parent is B1.
In the case of chain 1 Q4A, chain 1 R5A, the screen value is 0.359 Z-score of the enrichment rate within one screen of 711 sequences.
In the case of chain 1 R5A, chain 1 R7A, the screen value was -0.162 Z-score of the enrichment rate within one screen of 711 sequences.
For the variant chain 1 R7A, chain 1 L14A, the screen value was -0.345 Z-score of the enrichment rate within one screen of 711 sequences.
Next, chain 1 N16A: 1.29 Z-score of the enrichment rate within one screen of 711 sequences; chain 1 N16H: 1.43 Z-score of the enrichment rate within one screen of 711 sequences.
To chain 1 N16L belongs 1.52 Z-score of the enrichment rate within one screen of 711 sequences; to chain 1 N16V, 1.95 Z-score of the enrichment rate within one screen of 711 sequences.
To chain 1 N16T belongs 1.34 Z-score of the enrichment rate within one screen of 711 sequences; to chain 1 N16C, 1.62 Z-score of the enrichment rate within one screen of 711 sequences; to chain 1 N16W, 2.16 Z-score of the enrichment rate within one screen of 711 sequences.
For the variant chain 1 N16G, the screen value is 1.5 Z-score of the enrichment rate within one screen of 711 sequences.
Next, chain 1 N16E: 1.28 Z-score of the enrichment rate within one screen of 711 sequences; chain 1 N16P: 0.929 Z-score of the enrichment rate within one screen of 711 sequences.
To chain 1 P8A, chain 1 L14A belongs -0.643 Z-score of the enrichment rate within one screen of 711 sequences; to chain 1 P3A, chain 1 N16A, 1.34 Z-score of the enrichment rate within one screen of 711 sequences; to chain 1 Q11A, chain 1 P13A, 1.38 Z-score of the enrichment rate within one screen of 711 sequences.
Consider chain 1 P3A, chain 1 R5A, for which the screen value is 0.535 Z-score of the enrichment rate within one screen of 711 sequences.
To chain 1 P13A, chain 1 N16A belongs 1.11 Z-score of the enrichment rate within one screen of 711 sequences.
Regarding chain 1 P6A, chain 1 L12A, the screen value is -0.68 Z-score of the enrichment rate within one screen of 711 sequences.
Next, chain 1 T9C: 1.27 Z-score of the enrichment rate within one screen of 711 sequences; chain 1 T9Q: 0.994 Z-score of the enrichment rate within one screen of 711 sequences; chain 1 T9E: 0.507 Z-score of the enrichment rate within one screen of 711 sequences.
For chain 1 T9H, the screen value was 1.34 Z-score of the enrichment rate within one screen of 711 sequences.
With chain 1 T9W, the screen value was 1.21 Z-score of the enrichment rate within one screen of 711 sequences.
Turning to chain 1 T9F, the screen value was 1.43 Z-score of the enrichment rate within one screen of 711 sequences.
Next, chain 1 T9L: 1.24 Z-score of the enrichment rate within one screen of 711 sequences.
Next, chain 1 T9Y: 1.15 Z-score of the enrichment rate within one screen of 711 sequences; chain 1 T9M: 1.06 Z-score of the enrichment rate within one screen of 711 sequences; chain 1 P8A, chain 1 Q11A: 0.343 Z-score of the enrichment rate within one screen of 711 sequences.
Next, chain 1 R5A, chain 1 P6A: 0.351 Z-score of the enrichment rate within one screen of 711 sequences; chain 1 L10A, chain 1 P13A: -0.374 Z-score of the enrichment rate within one screen of 711 sequences; chain 1 Q4A, chain 1 P8A: 0.697 Z-score of the enrichment rate within one screen of 711 sequences.
Turning to chain 1 R5A, chain 1 P13A, the screen value is 0.748 Z-score of the enrichment rate within one screen of 711 sequences.
Next, chain 1 P13L: 1.38 Z-score of the enrichment rate within one screen of 711 sequences.
To chain 1 P13Q belongs 1.52 Z-score of the enrichment rate within one screen of 711 sequences.
Next, chain 1 P13C: 1.25 Z-score of the enrichment rate within one screen of 711 sequences; chain 1 P13V: 1.22 Z-score of the enrichment rate within one screen of 711 sequences.
For chain 1 P13S, the screen value was 1.22 Z-score of the enrichment rate within one screen of 711 sequences.
To chain 1 P13D belongs 1.95 Z-score of the enrichment rate within one screen of 711 sequences; to chain 1 P13N, 1.87 Z-score of the enrichment rate within one screen of 711 sequences.
To chain 1 P13H belongs 1.44 Z-score of the enrichment rate within one screen of 711 sequences.
To chain 1 R5I belongs 0.772 Z-score of the enrichment rate within one screen of 711 sequences; to chain 1 R5E, 0.07 Z-score of the enrichment rate within one screen of 711 sequences.
As for chain 1 R5P, the screen value was 0.594 Z-score of the enrichment rate within one screen of 711 sequences.
To chain 1 R5A belongs 0.263 Z-score of the enrichment rate within one screen of 711 sequences; to chain 1 R5W, 0.845 Z-score of the enrichment rate within one screen of 711 sequences.
Next, chain 1 R5V: 0.568 Z-score of the enrichment rate within one screen of 711 sequences; chain 1 R5D: -0.21 Z-score of the enrichment rate within one screen of 711 sequences; chain 1 P8A, chain 1 T9A: 0.477 Z-score of the enrichment rate within one screen of 711 sequences.
To chain 1 P3A, chain 1 P6A belongs 0.9 Z-score of the enrichment rate within one screen of 711 sequences.
For the variant chain 1 P8L, the screen value was 1.88 Z-score of the enrichment rate within one screen of 711 sequences.
Next, chain 1 P8F: 1.67 Z-score of the enrichment rate within one screen of 711 sequences; chain 1 P8I: 0.845 Z-score of the enrichment rate within one screen of 711 sequences; chain 1 P8V: 0.848 Z-score of the enrichment rate within one screen of 711 sequences.
Next, chain 1 P8W: 0.971 Z-score of the enrichment rate within one screen of 711 sequences.
chain 1 P8C: the screen value is 0.83 Z-score of the enrichment rate within one screen of 711 sequences.
For chain 1 P8Q, the screen value was 0.499 Z-score of the enrichment rate within one screen of 711 sequences.
chain 1 P8N: the screen value is 0.584 Z-score of the enrichment rate within one screen of 711 sequences.
As for chain 1 P8K, the screen value is 1.01 Z-score of the enrichment rate within one screen of 711 sequences.
To chain 1 P8M belongs 2.24 Z-score of the enrichment rate within one screen of 711 sequences; to chain 1 L10V, -0.341 Z-score of the enrichment rate within one screen of 711 sequences.
With chain 1 L10P, the screen value is -0.494 Z-score of the enrichment rate within one screen of 711 sequences.
Regarding chain 1 L10S, the screen value was -0.668 Z-score of the enrichment rate within one screen of 711 sequences.
Next, chain 1 L10R: -0.363 Z-score of the enrichment rate within one screen of 711 sequences.
To chain 1 L10G belongs -0.672 Z-score of the enrichment rate within one screen of 711 sequences.
To chain 1 L10N belongs -0.671 Z-score of the enrichment rate within one screen of 711 sequences.
As for chain 1 L10T, the screen value was -0.588 Z-score of the enrichment rate within one screen of 711 sequences.
To chain 1 L10A belongs -0.392 Z-score of the enrichment rate within one screen of 711 sequences; to chain 1 P8A, chain 1 L10A, -0.67 Z-score of the enrichment rate within one screen of 711 sequences.
To chain 1 R5A, chain 1 Q11A belongs 0.344 Z-score of the enrichment rate within one screen of 711 sequences; to chain 1 L10A, chain 1 L14A, -0.882 Z-score of the enrichment rate within one screen of 711 sequences.
As to chain 1 Q4A, chain 1 R7A, the screen value is 0.0948 Z-score of the enrichment rate within one screen of 711 sequences.
chain 1 R5A, chain 1 L10A: the screen value is -0.687 Z-score of the enrichment rate within one screen of 711 sequences.
To chain 1 Q4P belongs 1.26 Z-score of the enrichment rate within one screen of 711 sequences; to chain 1 Q4I, 1.36 Z-score of the enrichment rate within one screen of 711 sequences.
